Assay results: a protein production outcome set (Wang et al. 2014)

Experiment: label from the status in PepcDB records

Sequence | protein production
MKFVKIALIVAVVAIALFAAKQTGILEIITDIKSLQDWIASFGVWGYAVFVAAFVFACVFLLPGSAFTIVAGIVFGPIKGGILALFSATLGAVAAFIVARFLLRNTIMKKFGDNPIFKKIDDGVAANGTSFLILTRLVPVFPFSLQNYAYGLTSLNLGTYALVSLLTMAPGAFIFAYMAGDIATNGVSVMLLVKFAVAGLVLFGMSLIPKYIAKKKGINMEELAK | failed
MEEVYHDEPEKFNHILHLIRDYFNHRDDRARITACMGELMRDHLNLLVRFFDFFPAEASEGLAQLQTIAATSVSPDSTIDDAVSYINTVKEAFHDEPAKYYEFFQLFYDIRYRLIDVAGGITRVEELLKAHKNLLVRLNAFLPPEAQRILHLKIEQRAASDINKRKRVASFIGKLKERFQGDDRHVYESFLEILTMYQEGNKSVNDLYQEVGFLVGTLWLDYTFS | failed
MVWDRATPFVIDLNVGAEDIDGLGHANNAVYVSWLERCAWRHSQFLGLDLTEYQRLDRAMAVVRHEIDYLASAYESDELQLATWITDWDRRLKMTRCFQLKRPADNLTLLRAQTTFVCIELSSGRPKRMPAEFIEGYGAAIPLEHHHHHH | failed
MNQEKLLALMMDLHQDGARQGPGSETETLRALELTRIDPLAKLQVADIGCGTGASTLVLASKLQNAQITAIDIFPEFLDVLSTRAKVMGYSEKIETLTESMDKLSFADESLDLIWSEGAIYNLGFAQGIECWKPMLKTGGVLAVSEITWLNPLPPEEIRQHWNTEYPEIATASEKIAILEHGGYDLIGYFILPSTNWLDSYYTPVEERIHDFLKRHRGDLEAEELIKMERREMDLYSRFKNWFSYGFYVARKR | failed
MEYALLQHYWWFLVSLLGALLVFLLFVQGGQSFLFSLGKDELTQKMMVNSTGRKWEFTFTTLVTFGGALFASFPLFYSTSFGGAYWVWMLILFCFIIQAVSYEYQSKHGNVWGRKTYQILLFINGVLAPVLLGTAVSTFFTGSSFVVNKMAMFDLSGGNQIVSAWQPFNGWQLRGLEAVLNLWNVVLGLAVFFLARVSALLYFINNIDDESLYAAAKRRLWANTVAFLIFFLAYIAFLLTTEGFAVNPVSKEVYMEPYKYLYNFLDMPAVLAVFLLGVILVLGGIGLTLLRKGFKRGIWLHGTGTVLTVLALLLVAGWNDTSWYPSTYDLQSSLTIENASSSHFTLKVMSYVSLLIPFVLAYIFYAWRALDIRKITKKEMEQDDHVY | failed
MRCPGCGAAIQFDDPKKPGYIPREVFEKRLEEGKEILCQRCFRMKHYGKLEPVEFDWDFKNQLKSYLGGFDVVVWVIDIFDFEGTYREDIAEILKGKRVIYVINKIDLLPRAVTVKEIKEWVKKRIKTKNTDDIRIVSAEKNFGLTSLVKYLSRLTDKALVVGVTNVGKSSLLNKICTHENTISPFPGTTLGILKRKVKEANLYLYDTPGIMTSDRILDLLDPECQKRVLPREELSRKTFKPDNGRTIFMGGLCRFDIHFETEKNPIFLLFSSKEVTFHETRRERADELMRNRLGDLLIPPCSKTKFENFKWKRETFTLKEGEELAVAGLGWMSVRRGPFTVEVTVPDSVKLVVREALVNPKRLEHHHHHH | not failed
MLGSTDLVLLGKVVATHGIRGQLSVVPFSGEFSTILSMQTVYLSGPDNRKESFEVDRAAVHRNRVLLTLKGFANINEVLHLVGRELFARRDQFPPLDEGEFYWCDLIGLSVTTSEGLSLGRIEEIIATGSNDVYVVRDGEREYLIPALEDIVVGVDLDKGIMTVSPTEGLLDLLEHHHHHH | not failed
MDIWNFFTSFIVQSIAFLTHEVGVGEAVAIILFTLIGRLVLMPINLLAMANMYRNKKAISALKPELDKIKVIHKDKPNEIAKSTMALYKKNNIKILDKKSVINIASQGVFGFGMFQALQQIVFNSKFAWIANIAKPDVALALLVGVITYFSMIMMPGSAEQTSTLLFIIPAIICIITLISFPSAIGLYWATSSVTSLLQSLVLNNYFQKQEINKAI | failed
MRERFDVVIAGAGPAGAQCARDLAERNYEVLVLESEPEDGFPRQSNKSTAGTFMSAMTGFAIPDDVVMNYTDNVVLESPNDHYVRNQTGAVLEFAEFKQWLVSEGRDKGATYRFDSRVSAPIMENGEIVGVRYDGDEEVYADIVIDATGPAAPLAKELDVCNLQRNHQAIGVEYEFEGVEVDHDDYADLRDAMMLRLDHDLAPGGYSWIFHTGEDTAKVGLCYIQNGSHQKYAKDGMGIDDYLEYWLDSDPRFDDAERIEGTQAHRGSAHIQPPDSMSTDNFMAIGDTVPTVDPLWGEGIHKGMKSARAAAATADSALKPDEPDTSAENLSVYDQLWHSEVAPKHNARLMMTELLYLAPNERYDQLMDDLRSTGQDTLRQINGGDRRAIAKLTHLSDMPILVEYARRRLDILEHHHHHH | failed
